Source: publication doi:10.1101/2021.04.18.440036 (bioRxiv, 2021)

Biological target: protective antigen (PA) prepore (Bacillus anthracis V770-NP1-R (ATCC …, UniProt P13423))
Test: cryo-EM structure

Sequence of protective antigen (PA) prepore (Bacillus anthracis V770-NP1-R (P13423 whole entry, looked up): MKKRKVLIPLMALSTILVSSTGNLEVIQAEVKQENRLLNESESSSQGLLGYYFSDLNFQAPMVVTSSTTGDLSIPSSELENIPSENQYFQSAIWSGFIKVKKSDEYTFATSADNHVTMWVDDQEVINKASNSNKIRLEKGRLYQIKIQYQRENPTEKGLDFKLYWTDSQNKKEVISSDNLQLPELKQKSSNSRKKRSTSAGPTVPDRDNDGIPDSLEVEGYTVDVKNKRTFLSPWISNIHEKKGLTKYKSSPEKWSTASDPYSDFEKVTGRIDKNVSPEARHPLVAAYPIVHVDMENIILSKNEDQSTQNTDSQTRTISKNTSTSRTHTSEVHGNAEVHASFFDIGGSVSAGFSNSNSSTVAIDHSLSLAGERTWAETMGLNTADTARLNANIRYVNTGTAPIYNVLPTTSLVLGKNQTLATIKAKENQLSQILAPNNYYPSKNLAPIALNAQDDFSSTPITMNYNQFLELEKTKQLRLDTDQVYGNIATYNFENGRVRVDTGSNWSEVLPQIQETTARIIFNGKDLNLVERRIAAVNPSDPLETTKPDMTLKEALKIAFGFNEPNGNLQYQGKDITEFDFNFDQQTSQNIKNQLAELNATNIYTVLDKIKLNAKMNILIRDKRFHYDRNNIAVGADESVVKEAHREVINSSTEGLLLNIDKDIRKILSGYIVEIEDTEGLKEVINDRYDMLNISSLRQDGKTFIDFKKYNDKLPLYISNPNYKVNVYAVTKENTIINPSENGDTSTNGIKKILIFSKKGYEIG

B1: cAb29 Fab (Fab, V domains shown)
VH: QVQLQQSGAELVKPGASVKMSCKASGYIFTNYNMHWVQQTPGQGLEWIGAIYPRTGDTSYNQKFKGKATLTADKSSSTAYMQLSSLTSEDSAVYYCARDGFAYWGQG
VL: DIQMTQTTSSLSASLGDRVTISCRASQDISNYLNWYQQKPDGTVKLLIYYTSRLHSEVPSRFSGSGSGTDYSLTISNLEEEDIATYFCQQGKTLPWTFGGG
- binding result: binds
